In test [1] the target is T1, full-length human Tau (Tau441; 2N4R), recombinant (human, UniProt P10636 1-758).
T1 construct: made in E. coli, His6-Smt3 tag removed; biotinylated through amines for Octet and phage work; also called r-Tau; recombinant Tau
Briefly: Fab ELISA. As to the method:
(§1) Half-area ELISA plates (Costar™) were coated overnight at 4° C. with 25 μL per well of 0.5 μg/mL r-Tau or p-Tau. The plates were washed three times with PBST using a BioTek® plate washer. The plates were then blocked for one hour at room temperature with 100 μL per well of PBSA. After washing three times with PBST, the periplasmically-expressed Fabs were added ([…]) and the plates were incubated for one hour. The plates were subsequently washed three times with PBST, and 25 μL per well of PBSA containing a 1:5,000 dilution of HRP-conjugated rabbit anti-human kappa (obtained from Bethyl Laboratories) was added. The plates were incubated at room temperature for 30 minutes, then washed three times with PBST. The plates were developed by adding 25 μL per well of TMB substrate (obtained from Thermo Fisher) and quenched with 2N H₂SO₄. The signal was quantified on a BioTek® plate reader at A₄₅₀. Wells with signal greater than 5-fold over background for both r-Tau and p-Tau were considered positive and the clones were re-arrayed from the primary culture for confirmation of binding (by repeat of ELISA) and sequencing of the variable regions.
(§2) ELISAs were performed essentially as described above, but coating was performed using 1 μg/mL of each recombinant Tau species and using a 1:1 dilution (in PBS with 0.1% BSA, 0.05% Tween®) of Fab containing supernatant. The results of the ELISAs, showing Fab binding to cyno Tau and mouse Tau, as well as binding to phosphorylated full-length human Tau and the human Tau isoforms, are shown in Table 1 below.

For test [2], the target named is T2, N-terminal truncated human Tau (Tau(50-441)) (human, UniProt P10636 50-758).
T2 construct: also called 50-441 (2N4R)
Briefly: Fab ELISA. The procedure:
as §1, §2

The target of test [3] is human Tau splice isoform 0N3R (Tau352) (human, UniProt P10636 1-758). Briefly: Fab ELISA. As to the method:
as §1, §2

The target of test [4] is human Tau splice isoform 1N4R (Tau412) (human, UniProt P10636 1-758). Description: Fab ELISA. As to the method: as §1, §2
For test [5], the target named is human Tau splice isoform 0N4R (Tau383) (human, UniProt P10636 1-758). Briefly: Fab ELISA. As to the method: as §1, §2
Test [6] concerns the target human Tau splice isoform 1N3R (Tau381) (human, UniProt P10636 1-758). Briefly: Fab ELISA. As to the method: as §1, §2
In test [7] the target is mouse Tau (mouse, UniProt P10637 2-733). Briefly: Fab ELISA. As to the method: as §1, §2
The target of test [8] is T3, cynomolgus monkey Tau (cynomolgus monkey, UniProt P57786 2-459 (rhesus entry)).
T3 construct: also called cyno Tau; cyno-Tau
Briefly: Fab ELISA. The procedure: as §1, §2

In test [9] the target is T4, C-terminal truncated human Tau (Tau(1-421)) (human, UniProt P10636 1-738).
T4 construct: also called 1-421 (2N4R)
Description: Fab ELISA. The procedure:
as §1, §2

Test [10] has as its target human Tau splice isoform 2N3R (Tau410) (human, UniProt P10636 1-758). Description: Fab ELISA. The procedure:
as §1, §2

Test [11] has as its target T5, hyperphosphorylated recombinant human Tau441 (p-Tau) (human, UniProt P10636 1-758, phosphorylated in vitro with PKA and GSK3beta; sites not listed).
T5 construct: also called p-Tau (2N4R); phosphorylated r-Tau
Briefly: Fab ELISA. As to the method:
as §1, §2

For test [12], the target named is T1, full-length human Tau (Tau441; 2N4R), …. Briefly: SPR Biacore, IgG captured, r-Tau injected. The procedure:
The affinity of chimeric IgG antibodies 1C7, 1A1, 1A5, 1D10, and 1G7 for recombinant Tau was determined by surface plasmon resonance using a Biacore™ T200 instrument. Biacore™ Series S CM5 sensor chips were immobilized with monoclonal mouse anti-human IgG (Fc) antibody (human antibody capture kit from GE Healthcare). 1 μg/mL of antibody was captured for 1 minute on each flow cell and serial 3-fold dilutions of recombinant Tau were injected at a flow rate of […]. Each sample was analyzed with a 3-minute association and a 10-minute dissociation. After each injection the chip was regenerated using 3M MgCl₂. Binding response was corrected by subtracting the RU from a flow cell capturing an irrelevant IgG at similar density. A 1:1 Languir model of simultaneous fitting of kₒₙ and koff was used for kinetics analysis.

For test [13] the target is unchanged. Description: SPR Biacore.
Test [14] has the same target. Description: Octet binning on biotin-r-Tau; row antibody Ab107 (anti-BACE1 control). The procedure: (§3) Epitope binning assays were performed using a FortéBio® Octet® RED384 instrument using FortéBio® Streptavidin biosensors. Biotinylated recombinant Tau was diluted to a concentration of 2 μg/mL in kinetic buffer (obtained from FortéBio®) and captured onto individual biosensors for 1 minute. A baseline was then established for 1 minute in kinetic buffer. The loaded biosensors were dipped into 10 μg/mL of the first chimeric IgG antibody until signal saturation, followed by dipping into 1 μg/mL of a second antibody. The binding for the second antibody was normalized to its total binding in the absence of the first antibody.

The target is the same in test [15]. Briefly: Octet binning on biotin-r-Tau; competitor 1A5. The procedure: as §3
Test [16] shares this target. Description: Octet binning on biotin-r-Tau; competitor 1D10. As to the method: as §3
Test [17] shares this target. Briefly: Octet binning on biotin-r-Tau; competitor 1G7. As to the method: as §3
Test [18] shares this target. Description: Octet binning on biotin-r-Tau; competitor 1C7. The procedure:
as §3

The values that follow come from patent US20200216522A1 (DENALI THERAPEUTICS, published 2020).

Several values for one entry are separate records, joined by “and”; a condition that tells them apart may be missing. Identical values can stand only once.

T1 sequence (P10636 other isoform, or with tags, fused parts or gaps limits assumed): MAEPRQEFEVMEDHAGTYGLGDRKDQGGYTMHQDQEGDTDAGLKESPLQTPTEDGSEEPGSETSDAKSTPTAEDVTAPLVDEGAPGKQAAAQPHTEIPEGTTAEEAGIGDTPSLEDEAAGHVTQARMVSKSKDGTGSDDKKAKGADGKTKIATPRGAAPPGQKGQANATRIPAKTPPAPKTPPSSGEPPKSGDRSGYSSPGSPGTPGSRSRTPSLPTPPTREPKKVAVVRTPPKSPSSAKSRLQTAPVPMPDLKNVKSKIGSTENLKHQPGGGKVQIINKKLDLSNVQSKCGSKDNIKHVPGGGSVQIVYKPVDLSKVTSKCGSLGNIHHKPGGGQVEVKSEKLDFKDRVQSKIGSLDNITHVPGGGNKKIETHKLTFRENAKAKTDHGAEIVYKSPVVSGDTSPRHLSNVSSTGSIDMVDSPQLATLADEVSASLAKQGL
mouse Tau, sequence (P10637 other isoform, or with tags, fused parts or gaps limits assumed): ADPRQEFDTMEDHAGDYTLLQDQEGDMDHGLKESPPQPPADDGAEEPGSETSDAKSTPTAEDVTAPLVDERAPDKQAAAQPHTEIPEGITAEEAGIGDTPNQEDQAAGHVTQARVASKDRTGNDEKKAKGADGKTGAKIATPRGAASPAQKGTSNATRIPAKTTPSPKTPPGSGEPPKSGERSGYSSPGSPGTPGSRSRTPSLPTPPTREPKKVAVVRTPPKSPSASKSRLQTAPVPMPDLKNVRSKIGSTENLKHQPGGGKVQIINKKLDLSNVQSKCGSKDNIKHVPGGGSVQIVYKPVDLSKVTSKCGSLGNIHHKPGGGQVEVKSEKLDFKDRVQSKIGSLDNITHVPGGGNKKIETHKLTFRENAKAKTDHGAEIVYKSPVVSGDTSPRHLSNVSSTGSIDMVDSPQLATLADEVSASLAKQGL
T3 sequence (P57786 other isoform, or with tags, fused parts or gaps limits assumed): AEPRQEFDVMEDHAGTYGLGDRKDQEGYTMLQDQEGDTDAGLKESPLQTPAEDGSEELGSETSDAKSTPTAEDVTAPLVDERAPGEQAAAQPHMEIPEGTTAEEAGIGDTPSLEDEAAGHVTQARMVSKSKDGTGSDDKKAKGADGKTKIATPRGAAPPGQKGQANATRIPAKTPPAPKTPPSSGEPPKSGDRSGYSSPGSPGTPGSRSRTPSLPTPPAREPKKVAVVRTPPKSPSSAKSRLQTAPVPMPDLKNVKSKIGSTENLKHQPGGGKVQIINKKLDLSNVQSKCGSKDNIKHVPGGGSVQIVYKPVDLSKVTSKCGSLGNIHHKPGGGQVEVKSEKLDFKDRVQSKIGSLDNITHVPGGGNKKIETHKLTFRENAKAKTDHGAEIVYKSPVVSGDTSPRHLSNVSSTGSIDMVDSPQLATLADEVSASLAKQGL
T2 sequence (P10636 other isoform, or with tags, fused parts or gaps limits assumed): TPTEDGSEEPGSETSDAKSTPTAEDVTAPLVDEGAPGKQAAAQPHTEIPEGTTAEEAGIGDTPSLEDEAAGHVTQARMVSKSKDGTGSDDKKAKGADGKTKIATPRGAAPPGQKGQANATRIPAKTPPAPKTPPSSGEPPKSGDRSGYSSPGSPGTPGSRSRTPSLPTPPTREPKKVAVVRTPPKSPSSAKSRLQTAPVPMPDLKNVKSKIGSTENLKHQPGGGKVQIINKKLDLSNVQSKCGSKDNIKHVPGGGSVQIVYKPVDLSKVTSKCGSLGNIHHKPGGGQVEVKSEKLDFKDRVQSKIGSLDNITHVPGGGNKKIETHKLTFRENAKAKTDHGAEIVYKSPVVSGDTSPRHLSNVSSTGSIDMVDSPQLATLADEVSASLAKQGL
human Tau splice isoform 1N3R (Tau381), sequence (P10636 other isoform, or with tags, fused parts or gaps limits assumed): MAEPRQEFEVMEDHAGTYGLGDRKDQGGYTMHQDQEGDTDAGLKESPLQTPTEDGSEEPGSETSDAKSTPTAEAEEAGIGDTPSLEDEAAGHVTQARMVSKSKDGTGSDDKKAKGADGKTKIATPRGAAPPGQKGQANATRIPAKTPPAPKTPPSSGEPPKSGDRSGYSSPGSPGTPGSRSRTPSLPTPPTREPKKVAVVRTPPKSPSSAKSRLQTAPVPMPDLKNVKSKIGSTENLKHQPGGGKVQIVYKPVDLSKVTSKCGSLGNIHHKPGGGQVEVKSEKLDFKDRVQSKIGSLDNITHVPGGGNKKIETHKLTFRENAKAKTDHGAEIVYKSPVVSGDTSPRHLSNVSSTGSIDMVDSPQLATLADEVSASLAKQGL
T4 sequence (P10636 other isoform, or with tags, fused parts or gaps limits assumed): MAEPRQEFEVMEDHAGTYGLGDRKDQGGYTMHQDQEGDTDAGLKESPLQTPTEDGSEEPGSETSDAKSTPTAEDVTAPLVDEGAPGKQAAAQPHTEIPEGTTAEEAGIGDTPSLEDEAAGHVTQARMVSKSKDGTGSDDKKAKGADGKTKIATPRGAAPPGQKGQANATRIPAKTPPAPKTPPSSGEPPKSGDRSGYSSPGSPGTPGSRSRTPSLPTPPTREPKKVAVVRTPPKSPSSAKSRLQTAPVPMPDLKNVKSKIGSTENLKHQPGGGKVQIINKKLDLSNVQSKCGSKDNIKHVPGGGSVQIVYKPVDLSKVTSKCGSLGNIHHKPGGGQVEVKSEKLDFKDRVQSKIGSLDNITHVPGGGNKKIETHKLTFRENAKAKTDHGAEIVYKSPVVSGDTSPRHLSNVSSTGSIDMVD
human Tau splice isoform 1N4R (Tau412), sequence (P10636 other isoform, or with tags, fused parts or gaps limits assumed): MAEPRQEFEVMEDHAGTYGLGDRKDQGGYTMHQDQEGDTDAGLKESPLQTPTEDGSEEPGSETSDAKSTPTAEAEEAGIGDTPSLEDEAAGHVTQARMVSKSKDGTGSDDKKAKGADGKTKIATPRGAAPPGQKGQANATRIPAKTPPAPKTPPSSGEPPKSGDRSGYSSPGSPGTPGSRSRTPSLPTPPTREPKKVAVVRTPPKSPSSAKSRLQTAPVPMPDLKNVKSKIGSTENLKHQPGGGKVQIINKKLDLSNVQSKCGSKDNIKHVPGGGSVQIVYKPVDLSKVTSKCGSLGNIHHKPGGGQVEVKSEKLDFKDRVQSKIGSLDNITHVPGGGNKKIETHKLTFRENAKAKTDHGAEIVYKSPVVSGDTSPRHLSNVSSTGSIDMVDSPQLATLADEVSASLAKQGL
human Tau splice isoform 0N3R (Tau352), sequence (P10636 other isoform, or with tags, fused parts or gaps limits assumed): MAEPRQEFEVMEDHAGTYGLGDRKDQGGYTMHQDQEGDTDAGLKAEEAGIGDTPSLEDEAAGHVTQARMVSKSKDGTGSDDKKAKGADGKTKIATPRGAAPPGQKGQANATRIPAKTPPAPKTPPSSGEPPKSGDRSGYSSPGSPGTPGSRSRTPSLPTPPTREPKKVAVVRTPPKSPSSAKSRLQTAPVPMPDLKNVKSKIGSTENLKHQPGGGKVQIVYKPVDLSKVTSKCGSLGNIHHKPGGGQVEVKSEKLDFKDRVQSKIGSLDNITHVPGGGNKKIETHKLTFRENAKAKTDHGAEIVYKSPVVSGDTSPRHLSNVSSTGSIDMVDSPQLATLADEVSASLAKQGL
human Tau splice isoform 2N3R (Tau410), sequence (P10636 other isoform, or with tags, fused parts or gaps limits assumed): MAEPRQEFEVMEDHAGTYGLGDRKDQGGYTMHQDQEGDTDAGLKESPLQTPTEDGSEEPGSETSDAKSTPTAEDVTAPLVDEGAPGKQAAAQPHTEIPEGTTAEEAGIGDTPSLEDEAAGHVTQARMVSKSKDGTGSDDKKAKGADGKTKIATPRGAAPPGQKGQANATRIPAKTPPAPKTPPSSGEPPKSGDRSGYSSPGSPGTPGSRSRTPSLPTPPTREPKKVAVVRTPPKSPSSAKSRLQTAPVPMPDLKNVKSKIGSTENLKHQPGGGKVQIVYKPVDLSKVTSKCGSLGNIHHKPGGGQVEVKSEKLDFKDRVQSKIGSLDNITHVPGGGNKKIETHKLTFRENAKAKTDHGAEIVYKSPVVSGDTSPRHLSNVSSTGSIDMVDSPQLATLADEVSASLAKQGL
human Tau splice isoform 0N4R (Tau383), sequence (P10636 other isoform, or with tags, fused parts or gaps limits assumed): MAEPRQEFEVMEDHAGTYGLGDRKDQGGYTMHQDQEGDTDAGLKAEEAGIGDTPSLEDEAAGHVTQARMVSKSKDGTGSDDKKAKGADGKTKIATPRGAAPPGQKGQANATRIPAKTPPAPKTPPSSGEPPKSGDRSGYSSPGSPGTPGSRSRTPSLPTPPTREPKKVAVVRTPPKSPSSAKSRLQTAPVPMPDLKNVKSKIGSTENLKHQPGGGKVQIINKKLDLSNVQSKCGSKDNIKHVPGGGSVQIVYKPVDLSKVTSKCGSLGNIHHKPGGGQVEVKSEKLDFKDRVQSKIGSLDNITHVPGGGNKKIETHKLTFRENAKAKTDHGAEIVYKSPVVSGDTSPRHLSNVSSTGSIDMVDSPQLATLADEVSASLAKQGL

B1: Clone 1G7 Fab (Fab, V domains shown)
VH: EVQLQQSGAEVVRPGASVKLSCTTSGFNIKDSLMHWLKQRPEQGLEWIGWIDPEDGETKYAPKFQDKATITADTSSNTAYLQLSSLTSGDTAIYYCARRDWEGPWGQGTLVTVSA
VL: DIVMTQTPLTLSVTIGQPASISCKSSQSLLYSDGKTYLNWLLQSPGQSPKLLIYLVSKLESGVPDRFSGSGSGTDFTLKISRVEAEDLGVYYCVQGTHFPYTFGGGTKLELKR
notes: crude periplasmic Fab; mouse V regions joined to human CH1 and human kappa constant
As to B1, the A450 avg. was determined as 2.04 in test [1]; 1.68 in test [2]; 0.725 in [3]; 1.8 in test [4]; 1.88 in test [5]; 2.16 in test [6]. The A450 avg. was 1.51 in [7]; 1.53 in [8]; 1.23 in test [9]; 2 in test [10]; 1.61 in test [11].

B2: chimeric IgG clone 1C7 (antibody, V domains shown)
VH: EVKLVESGGGLVKPGGSLKLSCAASGFTFSSYGMSWVRQTPEKRLEWVASISGDGGSYIHYADSVKGRFTISRDSAKNTLYLQMSSLRSEDTALYYCARLPYWGQGTLVTVSA
VL: DIVMTQSPSSLTVTAGEKVTMSCKSSQSLLNSGNQKNYLTWYQQKPGQPPKLLIYWASTRESGVPDRFTGSGSGTDFTLTISNVQSEDLAEYFCQQYNSYPLTFGAGTKLELKR
notes: mouse-human chimeric IgG from HEK293; also called 1C7.IgG; anti-Tau^1C7
As for B2, the Kd is 0.2 nM in test [12]; 0.8 nM and 0.44 nM in test [13]. The “normalized binding of second antibody” value in test [14] amounted to 1; in test [15] it was 0.88; in test [16], 0.82; in [17], 0.84; in [18], 0.03.

B3: Clone 1D10 Fab (Fab, V domains shown)
VH: EVQLQQSGAELVRPGASVKLSCTASGFNIKDSLMHWMKQRPEQGLEWIGWIDPEDGETKYAPKFQDKATLTADTSSNAAYLQLSSLTSEDTAIYYCVRGDWDGGYWGQGTTLTVSS
VL: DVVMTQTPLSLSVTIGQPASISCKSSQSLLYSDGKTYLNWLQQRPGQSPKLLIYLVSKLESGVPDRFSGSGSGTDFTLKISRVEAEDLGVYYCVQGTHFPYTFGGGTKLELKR
notes: as for B1
Consider B3, for which the A450 avg. is 1.47 in test [1]; 1.13 in [2]; 0.323 in [3]; 0.939 in test [4]; 1.19 in test [5]; 1.49 in [6]. In addition, the A450 avg. in test [7] was 1.1; in test [8], 0.867; in [9] it was 0.806; in test [10], 1.46; in test [11], 1.19.
